In patent publication US10000771B2, “Nuclear targeting sequences” (Yeda Research and Development Co. Ltd., priority 2007, dated 2018):
One block for each molecule: values may come before it.

Assays:
Act-GST-ERK2 = target: T1, Act-GST-ERK2 (Rattus norvegicus, UniProt P63086); assay: In vitro kinase assay with active GST-ERK2; assay type: biochemical; details: immunoprecipitated protein as substrate, relative to GFP-ERK2
T1 construct: made in house; host or cells: bacteria co-expressing active MEK1
Procedure: (§1) FIGS. 4A-4I are autoradiographs characterizing SPS phosphorylation using an Ab to the phosphorylated SPS domain. FIG. 4A illustrates an elevation of pSPS detection upon stimulation. COS cells were transfected with WT-GFP-ERK2. Twenty-four hr after transfection, the cells were serum-starved for 16 hr and subsequently treated with the general stimulator VOOH (V, 100 μM Na3VO4 and 200 μM H2O2, 15 min), TPA (T, 250 nM, 15 min), EGF (E, 50 ng/ml for 15 min), or left untreated (NT). The GFP-ERK2 was immunoprecipitated with anti GFP Ab, extensively washed, and the IP was then subjected to Western blotting with anti phospho SPS-ERK (αphoSPS-ERK) and anti general ERK (αgen-ERK) Abs. FIG. 4B is a time course of SPS phosphorylation. […] SPS phosphorylation was detected using the anti pSPS Abs, and this was compared to the amount of genral ERKs detected by αgERK. […] SPS-phosphorylation was detected using αpSPS and αgERK Abs. […] The phosphorylation (^32P-ERK2) of ERK and its mutants was detected by autoradiography. […]
Some protein kinases downstream of MEKs that may be involved in the SPS phosphorylation are ERKs themselves (autophosphorylation) as their consensus phosphorylation site includes Ser/Thr followed by a Pro (Yoon and Seger, 2006, Growth Factors, 24, 21-44). […] As expected, ^32P incorporation to GFP-ERK2 was detected mainly when this protein was incubated with Act-ERK2. […]

SPS domain = assay: SPS phosphorylation detected by anti pSPS Ab Western blot; assay type: cell-based; details: COS7 cells, stimulated with VOOH, TPA, EGF or TGFβ, immunoprecipitation and Western blot
Procedure: as §1, with “phosphorylation. COS7 cells overexpressing WT-GFP-ERK2 were serum starved followed by EGF stimulation for the indicated time points. The lysates were then subjected to Western blot analysis as in FIG. 4A.” for “phosphorylation.”
FIG. 9B is an autoradiograph illustrating that stimulation elevates pSPS phosphorylation of 2GFP-SPS construct. […] The total amount of immunoprecipitated 2GFP-SPS was detected with αGFP Ab. […]

CHO cells = assay: Microscopy of MEK1-GFP constructs (subcellular localization); assay type: cell-based
Procedure: FIGS. 14A-14R are photomicrographs illustrating that the NTS motif regulates MEK1 shuttling into the nucleus. CHO cells overexpressing WT-GFP-MEK1 (WT), AAA-GFP-MEK1 (AAA-MEK) and EPE-GFP-MEK1 (EPE-MEK) were starved for 16 hr and treated with LMB (5 ng/ml, 1 hr; LMB), LMB (5 ng/ml, 1 hr)+TPA (250 nM, 15 min; LMB+TPA) or left un treated (NT). Subsequently the cells were fixed, stained with DAPI and visualized by a fluorescent microscope.
Immunofluorescence Microscopy. Cells were fixed (30 min in 3% paraformaldehyde in PBS or 10 min with ice-cold methanol), followed by 5-min permeabilization with 0.2% Triton X-100 in PBS (23° C.). The fixed cells were sequentially incubated with the appropriate Abs (45 min) followed by rhodamine-conjugated secondary Abs (45 min) and DAPI. Slides were visualized using a fluorescence microscope (Nikon, Japan) at 400× magnifications.
Other proteins that translocate into the nucleus upon stimulation are the MEKs [H. Jaaro, H. Rubinfeld, T. Hanoch, R. Seger, Proc. Natl. Acad. Sci. USA 94, 3742 (1997)]. […] This TPT sequence was also shown to be phosphorylated upon cellular stimulation [S. Matsuda, Y. Gotoh, E. Nishida, J Biol Chem 268, 3277 (Feb. 15, 1993)], and to be involved in protein-protein interaction that can determine subcellular localization [A. Nantel, K. Mohammad-Ali, J. Sherk, B. I. Posner, D. Y. Thomas, J Biol Chem 273, 10475 (Apr. 24, 1998). […]

T1 sequence (P63086 whole entry): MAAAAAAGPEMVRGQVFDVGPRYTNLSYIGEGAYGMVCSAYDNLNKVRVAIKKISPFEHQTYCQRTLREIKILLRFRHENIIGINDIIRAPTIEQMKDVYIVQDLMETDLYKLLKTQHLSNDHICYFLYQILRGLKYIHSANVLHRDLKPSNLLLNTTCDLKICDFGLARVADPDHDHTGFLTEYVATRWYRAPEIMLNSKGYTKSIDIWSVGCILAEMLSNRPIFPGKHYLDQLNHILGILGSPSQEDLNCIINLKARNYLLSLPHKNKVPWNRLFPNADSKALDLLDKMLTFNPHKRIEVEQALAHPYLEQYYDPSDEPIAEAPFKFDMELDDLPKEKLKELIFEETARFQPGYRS

reduction of phosphorylation (32P incorporation) by Act-ERK2 (Act-GST-ERK2): ~25%
B1: TEY-AAA: TEY mutated ERK2 that does not contain phosphates in this site (protein)
chain: MAAAAAAGPEMVRGQVFDVGPRYTNLSYIGEGAYGMVCSAYDNLNKVRVAIKKISPFEHQTYCQRTLREIKILLRFRHENIIGINDIIRAPTIEQMKDVYIVQDLMETDLYKLLKTQHLSNDHICYFLYQILRGLKYIHSANVLHRDLKPSNLLLNTTCDLKICDFGLARVADPDHDHTGFLAAAVATRWYRAPEIMLNSKGYTKSIDIWSVGCILAEMLSNRPIFPGKHYLDQLNHILGILGSPSQEDLNCIINLKARNYLLSLPHKNKVPWNRLFPNADSKALDLLDKMLTFNPHKRIEVEQALAHPYLEQYYDPSDEPIAEAPFKFDMELDDLPKEKLKELIFEETARFQPGYRS
modifications: left off: large carriers
SPS phosphorylation upon stimulation (anti pSPS Ab recognition) (SPS domain): can still be recognize by the anti phosphoSPS Ab upon stimulation

B2: AAA-MEK1: GFP-MEK1 with residues 386-8 (TPT) replaced with Ala (protein, UniProt Q02750 1-393, looked up, variant T386A P387A T388A)
Dual specificity …: MPKKKPTPIQLNPAPDGSAVNGTSSAETNLEALQKKLEELELDEQQRKRLEAFLTQKQKVGELKDDDFEKISELGAGNGGVVFKVSHKPSGLVMARKLIHLEIKPAIRNQIIRELQVLHECNSPYIVGFYGAFYSDGEISICMEHMDGGSLDQVLKKAGRIPEQILGKVSIAVIKGLTYLREKHKIMHRDVKPSNILVNSRGEIKLCDFGVSGQLIDSMANSFVGTRSYMSPERLQGTHYSVQSDIWSMGLSLVEMAVGRYPIPPPDAKELELMFGCQVEGDAAETPPRPRTPGRPLSSYGMDSRPPMAIFELLDYIVNEPPPKLPSGVFSLEFQDFVNKCLIKNPAERADLKQLMVHAFIKRSDAEEVDFAGWLCSTIGLNQPSAAAHAAGV
modifications: GFP fusion
notes: GFP-MEK1 with residues 386-8 (TPT) replaced with Ala
nuclear accumulation after TPA stimulation (CHO cells; LMB 5 ng/ml + TPA 250 nM, 15 min): localized in the cytoplasm | nuclear translocation after leptomycin B (CHO cells; LMB 5 ng/ml, 1 hr): abrogated
